Target: T1, H3(1-15Y)K9me3 (Homo sapiens, H3K9me3)
T1 chain: ARTKQTARKSTGGKAY
Test: ITC

Kd: 300 nM
B1: Su(Var)205 17-76 (protein)
chain: not shown

— publication PMC3265130 (2011)
